The test system of the data set is MS2 coat protein. Description: apparent KD of MS2 coat protein; higher = weaker reporter binding. Particulars: Eterna round: R107. Summed up:
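Titrations with SNAP-549-labelled MS2 coat protein ran in twofold steps from 0.7 or 1.5 nM to 3 µM, each step taking 0.8–1.5 h at the start and 10–20 min toward the end. The targets were designed RNA switches transcribed on-chip from Illumina sequencing clusters, held in 100 mM Tris-HCl pH 7.5, 80 mM KCl, 4 mM MgCl2, without or with constant ligand. Apparent KD was taken per design as the median of normalised cluster binding-curve fits.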

Where [1] appears, read: input ligand: theophylline 20 uM.
Where [2] appears, read: input ligand: theophylline 2 mM.
Setting [3] is: input ligand: tryptophan 2.4 mM.

These results are taken from the supplement of paper PMC9170038.

Consider “CCUCACGAAAUCGAUGAAAGCAUGUGGCACCGAGGACCGGUACGGCCGCCACUCGCAUCCACACAUGAGGAUCACCCAUGUAAGA [theeternabot_exclusion_MS2_Trp_A_9]”, for which the “apparent KD of MS2 coat protein” value (input ligand: arginine 13.2 mM) came to 27.3 nM, the “apparent KD of MS2 coat protein” value under setting [1] worked out at 37.6 nM and the “apparent KD of MS2 coat protein” value under setting [2] is 59.6 nM.

For the sequence “CCUCAUGAACAUGAGGAUCACCCAUGUACACGAGGACCGGUACGGCCGCCACUCGAAUAACCUUAAUAUAAAUAAUAAUAAAAGG [5' end split MS2]”, the “apparent KD of MS2 coat protein” value by setting is: (input ligand: arginine 13.2 mM) 14.5 nM; (input ligand: none) 16.7 nM; under setting [1], 21.5 nM; under setting [2], 19.1 nM; under setting [3], 45.5 nM.

Regarding “CCUUAAUAUAGAAGGAGCGCGCUAACAUGAGGAUCACCCAUGUAAAGGGUUUUUGGCUUAGCGCAGGUAGGUCGCUAUAAGAACC [Arg B Ex t1]”, the “apparent KD of MS2 coat protein” value (input ligand: arginine 13.2 mM) amounted to 74 nM; the “apparent KD of MS2 coat protein” value (input ligand: none) came out at 128 nM; the “apparent KD of MS2 coat protein” value under setting [1] turned out to be 162 nM; the “apparent KD of MS2 coat protein” value under setting [2] worked out at 131 nM; the “apparent KD of MS2 coat protein” value under setting [3] came to 134 nM.

As for “CGACACAUGAGGAUCACCCAUGUAAUGACGCGAGGACCGGUACGGCCGCCACUCGCAUGCCAAUGAGCGCAUGCGGCCUGGGUAU [Exclusion Tryp A GF6]”, the “apparent KD of MS2 coat protein” value is, setting by setting: (input ligand: arginine 13.2 mM) 17.5 nM; under setting [1], 23.6 nM; under setting [2], 19.5 nM.

Consider “CGACUACAGCGUGAUACCAGUGACAGAUACCAGUCUAGACAUGAGGAUCACCCAUGUACGCGCCCUUGGCAGCACACUAGAUCGA [#29 Same State - Theophylline B]”, for which the “apparent KD of MS2 coat protein” value was found to be 36.7 nM (input ligand: arginine 13.2 mM), 128 nM under setting [1] and 83.2 nM under setting [3].

Consider “CGAUCUUUCGAAAGAAGGAUCUUGUCUGAUACCAGAGACGAAAGUCUCCCUUGGCAGCAGUGCCAACAUGAGGAUCACCCAUGUU [Theophylline A 11]”, for which the “apparent KD of MS2 coat protein” value is, setting by setting: (input ligand: arginine 13.2 mM) 16 nM; under setting [1], 17.6 nM; under setting [3], 15.5 nM.

“CGCAACAUGAGGAUCACCCAUGUAAUGACGCGAGGACCGGUACGGCCGCCACUCGCCUGCCAAUGAGCGCAUGCGGCCUGGGUAU [Exclusion Tryp A GF7]”: the “apparent KD of MS2 coat protein” value reads like this: (input ligand: arginine 13.2 mM) 11.9 nM; under setting [1], 16.1 nM; under setting [2], 13.5 nM.

“CGCCACUCGAGUGAUCCUCACGAGUGGCUACGAGGACCGGUACGGCCGCCACUCGAAUUAACAUGAGGAUCACCCAUGUAAUCCA [Brourdmod09]”: the “apparent KD of MS2 coat protein” value (input ligand: arginine 13.2 mM) was 21.1 nM, the “apparent KD of MS2 coat protein” value under setting [1] was determined as 217 nM and the “apparent KD of MS2 coat protein” value under setting [2] was 400 nM.

For “CGGUAACCACAUGAGGAUCACCCAUGUGAAGGAGCGGCGAAUAAGCCAGGUAGGUCGCGCAUGAAUAAAUCAUGUAGGUGCCGAA [XArg-A 15 NuPack]”, the “apparent KD of MS2 coat protein” value (input ligand: arginine 13.2 mM) was found to be 31.2 nM; the “apparent KD of MS2 coat protein” value (input ligand: none) came out at 48.4 nM; the “apparent KD of MS2 coat protein” value under setting [1] was 69.7 nM; the “apparent KD of MS2 coat protein” value under setting [2] came out at 156 nM; the “apparent KD of MS2 coat protein” value under setting [3] was found to be 99.8 nM.

As for “CGGUAACCACAUGAGGAUCACCCAUGUGAAGGAGCGGCGAAUAAGCCAGGUAGGUCGCGCAUGAAUAAAUCAUGUUGGUGCCGAA [XArg-A 16 NuPack]”, the “apparent KD of MS2 coat protein” value (input ligand: arginine 13.2 mM) worked out at 31.9 nM; the “apparent KD of MS2 coat protein” value (input ligand: none) was 45.7 nM; the “apparent KD of MS2 coat protein” value under setting [1] amounted to 121 nM; the “apparent KD of MS2 coat protein” value under setting [2] amounted to 64.5 nM; the “apparent KD of MS2 coat protein” value under setting [3] was found to be 31 nM.

On to “CGGUACAUGAGGAUCACCCAUGUGUCGGAUACCAGAGAGCCGUCUCUCCCUUGGCAGCUGGUUUUACAUGAGGAUCACCCAUGUG [Exclusion Theophylline A GF20]”, for which the “apparent KD of MS2 coat protein” value is, setting by setting: (input ligand: arginine 13.2 mM) 12.5 nM; under setting [1], 15.2 nM; under setting [3], 12.6 nM.

Take “CGGUCGGUCGGCCGGUGAUUAUGGGAUGAAGGAGCGUGGGAAGCUACAGGUAGGUCGCAUCCGAAACAUCACGAUCACGGAUGUU [SSArg A #26Alt-Ms2 Mod]”: the “apparent KD of MS2 coat protein” value turned out to be 46.3 nM (input ligand: arginine 13.2 mM), 134 nM under setting [1], 101 nM under setting [2] and 72.4 nM under setting [3].

On to “CGUCGAGACUGAAGGAGCGAGAUAACAACAUUGGGUCUCAACACAUGAGGAUCACCCAUGUCUCAGGUAGGUCGCGGUGUCACCG [Exclusion Arginine B GF21]”, for which the “apparent KD of MS2 coat protein” value by setting is: (input ligand: arginine 13.2 mM) 142 nM; (input ligand: none) 195 nM; under setting [1], 211 nM; under setting [2], 150 nM; under setting [3], 132 nM.

For the sequence “CGUGGUGGGACGGAUACCAGCCACCGCGGCAACGCAACAUGAGGAUCACCCAUGUUGGGUGGCCCUUGGCAGCUGUCCUGCGGCG [#1 Same State - Theophylline B Attempt #26 (HarryS)]”, the “apparent KD of MS2 coat protein” value reads like this: (input ligand: arginine 13.2 mM) 9.91 nM; under setting [1], 15 nM; under setting [3], 11.4 nM.

For the sequence “CGUGUCGUAACUGAUACCAGUGUACUGACAUGAGGAUCACCCAUGUUGGGUUUUGUUGUACACCCUUGGCAGCAGAAUCGAUACG [AstrosExyTheB#7]”, the “apparent KD of MS2 coat protein” value runs as follows: (input ligand: arginine 13.2 mM) 46.3 nM; under setting [1], 94 nM; under setting [3], 75.1 nM.

For “CUAGGAAACUAGUAAGGGUGGUAUUGAGAUACCAGUACAGAAAUGUACCCUUGGCAGCUCACUGCAACAUGAGGAUCACCCAUGU [Ex Theophylline A 12]”, the “apparent KD of MS2 coat protein” value (input ligand: arginine 13.2 mM) worked out at 22.5 nM, the “apparent KD of MS2 coat protein” value under setting [1] was determined as 29.3 nM and the “apparent KD of MS2 coat protein” value under setting [3] was 27 nM.

For “CUAUAAUAUAGAAGGAGCGUCGAAAAUGGGUAAACAUGAGGAUCACCCAUGUAAAGGGAACGACAGGUAGGUCGCUAUAUUAUAG [AstromonsSSArgB#12]”, the “apparent KD of MS2 coat protein” value is, setting by setting: (input ligand: arginine 13.2 mM) 181 nM; (input ligand: none) 228 nM; under setting [1], 237 nM; under setting [2], 305 nM; under setting [3], 223 nM.

For the sequence “CUCUGAGUCCGCAAGGACUCAGAGGCGGAUACCAGCGAGGUCCAUCGCCCUUGGCAGCCGAACAUGAGGAUCACCCAUGUCGGUA [#1 Same State - Theophylline A Attempt #27 (HarryS)]”, the “apparent KD of MS2 coat protein” value by setting is: (input ligand: arginine 13.2 mM) 8.89 nM; under setting [1], 14.5 nM; under setting [3], 10.9 nM.

For the sequence “CUCUUCCGGAAGGAUACCAGCUACAUGAGGAUCACCCAUGUAGGAGCGGGUUUCUAAUGUAGCCCUUGGCAGCCUUAGCCCGUCG [Querarra]”, the “apparent KD of MS2 coat protein” value was found to be 15.9 nM (input ligand: arginine 13.2 mM), 36.5 nM under setting [1] and 18 nM under setting [3].
